# Source: PMC10540216, “Activity Guided Azide-methyllysine Photo-trapping for Substrate Profiling of Lysine Demethylases” (Journal of the American Chemical Society, 2023)
# B1: NCKP1_HUMAN (protein, UniProt Q9Y2A7 2-1128, looked up)
# Nck-associated protein 1: SRSVLQPSQQKLAEKLTILNDRGVGMLTRLYNIKKACGDPKAKPSYLIDKNLESAVKFIVRKFPAVETRNNNQQLAQLQKEKSEILKNLALYYFTFVDVMEFKDHVCELLNTIDVCQVFFDITVNFDLTKNYLDLIITYTTLMILLSRIEERKAIIGLYNYAHEMTHGASDREYPRLGQMIVDYENPLKKMMEEFVPHSKSLSDALISLQMVYPRRNLSADQWRNAQLLSLISAPSTMLNPAQSDTMPCEYLSLDAMEKWIIFGFILCHGILNTDATALNLWKLALQSSSCLSLFRDEVFHIHKAAEDLFVNIRGYNKRINDIRECKEAAVSHAGSMHRERRKFLRSALKELATVLSDQPGLLGPKALFVFMALSFARDEIIWLLRHADNMPKKSADDFIDKHIAELIFYMEELRAHVRKYGPVMQRYYVQYLSGFDAVVLNELVQNLSVCPEDESIIMSSFVNTMTSLSVKQVEDGEVFDFRGMRLDWFRLQAYTSVSKASLGLADHRELGKMMNTIIFHTKMVDSLVEMLVETSDLSIFCFYSRAFEKMFQQCLELPSQSRYSIAFPLLCTHFMSCTHELCPEERHHIGDRSLSLCNMFLDEMAKQARNLITDICTEQCTLSDQLLPKHCAKTISQAVNKKSKKQTGKKGEPEREKPGVESMRKNRLVVTNLDKLHTALSELCFSINYVPNMVVWEHTFTPREYLTSHLEIRFTKSIVGMTMYNQATQEIAKPSELLTSVRAYMTVLQSIENYVQIDITRVFNNVLLQQTQHLDSHGEPTITSLYTNWYLETLLRQVSNGHIAYFPAMKAFVNLPTENELTFNAEEYSDISEMRSLSELLGPYGMKFLSESLMWHISSQVAELKKLVVENVDVLTQMRTSFDKPDQMAALFKRLSSVDSVLKRMTIIGVILSFRSLAQEALRDVLSYHIPFLVSSIEDFKDHIPRETDMKVAMNVYELSSAAGLPCEIDPALVVALSSQKSENISPEEEYKIACLLMVFVAVSLPTLASNVMSQYSPAIEGHCNNIHCLAKAINQIAAALFTIHKGSIEDRLKEFLALASSSLLKIGQETDKTTTRNRESVYLLLDMIVQESPFLTMDLLESCFPYVLLRNAYHAVYKQSVTSSA
# B2: YTDC2_HUMAN (protein, UniProt Q9H6S0 1-1430, looked up)
# 3'-5' RNA helicase YTHDC2: MSRPSSVSPRQPAPGGGGGGGPSPCGPGGGGRAKGLKDIRIDEEVKIAVNIALERFRYGDQREMEFPSSLTSTERAFIHRLSQSLGLVSKSKGKGANRYLTVKKKDGSETAHAMMTCNLTHNTKHAVRSLIQRFPVTNKERTELLPKTERGNVFAVEAENREMSKTSGRLNNGIPQIPVKRGESEFDSFRQSLPVFEKQEEIVKIIKENKVVLIVGETGSGKTTQIPQFLLDDCFKNGIPCRIFCTQPRRLAAIAVAERVAAERRERIGQTIGYQIRLESRVSPKTLLTFCTNGVLLRTLMAGDSTLSTVTHVIVDEVHERDRFSDFLLTKLRDLLQKHPTLKLILSSAALDVNLFIRYFGSCPVIYIQGRPFEVKEMFLEDILRTTGYTNKEMLKYKKEKQQEEKQQTTLTEWYSAQENSFKPESQRQRTVLNVTDEYDLLDDGGDAVFSQLTEKDVNCLEPWLIKEMDACLSDIWLHKDIDAFAQVFHLILTENVSVDYRHSETSATALMVAAGRGFASQVEQLISMGANVHSKASNGWMALDWAKHFGQTEIVDLLESYSATLEFGNLDESSLVQTNGSDLSAEDRELLKAYHHSFDDEKVDLDLIMHLLYNICHSCDAGAVLIFLPGYDEIVGLRDRILFDDKRFADSTHRYQVFMLHSNMQTSDQKKVLKNPPAGVRKIILSTNIAETSITVNDVVFVIDSGKVKEKSFDALNFVTMLKMVWISKASAIQRKGRAGRCRPGICFRLFSRLRFQNMLEFQTPELLRMPLQELCLHTKLLAPVNCPIADFLMKAPEPPPALIVRNAVQMLKTIDAMDTWEDLTELGYHLADLPVEPHLGKMVLCAVVLKCLDPILTIACTLAYRDPFVLPTQASQKRAAMLCRKRFTAGAFSDHMALLRAFQAWQKARSDGWERAFCEKNFLSQATMEIIIGMRTQLLGQLRASGFVRARGGGDIRDVNTNSENWAVVKAALVAGMYPNLVHVDRENLVLTGPKEKKVRFHPASVLSQPQYKKIPPANGQAAAIKALPTDWLIYDEMTRAHRIANIRCCSAVTPVTILVFCGPARLASNALQEPSSFRVDGIPNDSSDSEMEDKTTANLAALKLDEWLHFTLEPEAASLLLQLRQKWHSLFLRRMRAPSKPWSQVDEATIRAIIAVLSTEEQSAGLQQPSGIGQRPRPMSSEELPLASSWRSNNSRKSSADTEFSDECTTAERVLMKSPSPALHPPQKYKDRGILHPKRGTEDRSDQSSLKSTDSSSYPSPCASPSPPSSGKGSKSPSPRPNMPVRYFIMKSSNLRNLEISQQKGIWSTTPSNERKLNRAFWESSIVYLVFSVQGSGHFQGFSRMSSEIGREKSQDWGSAGLGGVFKVEWIRKESLPFQFAHHLLNPWNDNKKVQISRDGQELEPLVGEQLLQLWERLPLGEKNTTD
# B3: SIN3A_HUMAN (protein, UniProt Q96ST3 1-1273, looked up)
# Paired amphipathic helix …: MKRRLDDQESPVYAAQQRRIPGSTEAFPHQHRVLAPAPPVYEAVSETMQSATGIQYSVTPSYQVSAMPQSSGSHGPAIAAVHSSHHHPTAVQPHGGQVVQSHAHPAPPVAPVQGQQQFQRLKVEDALSYLDQVKLQFGSQPQVYNDFLDIMKEFKSQSIDTPGVISRVSQLFKGHPDLIMGFNTFLPPGYKIEVQTNDMVNVTTPGQVHQIPTHGIQPQPQPPPQHPSQPSAQSAPAPAQPAPQPPPAKVSKPSQLQAHTPASQQTPPLPPYASPRSPPVQPHTPVTISLGTAPSLQNNQPVEFNHAINYVNKIKNRFQGQPDIYKAFLEILHTYQKEQRNAKEAGGNYTPALTEQEVYAQVARLFKNQEDLLSEFGQFLPDANSSVLLSKTTAEKVDSVRNDHGGTVKKPQLNNKPQRPSQNGCQIRRHPTGTTPPVKKKPKLLNLKDSSMADASKHGGGTESLFFDKVRKALRSAEAYENFLRCLVIFNQEVISRAELVQLVSPFLGKFPELFNWFKNFLGYKESVHLETYPKERATEGIAMEIDYASCKRLGSSYRALPKSYQQPKCTGRTPLCKEVLNDTWVSFPSWSEDSTFVSSKKTQYEEHIYRCEDERFELDVVLETNLATIRVLEAIQKKLSRLSAEEQAKFRLDNTLGGTSEVIHRKALQRIYADKAADIIDGLRKNPSIAVPIVLKRLKMKEEEWREAQRGFNKVWREQNEKYYLKSLDHQGINFKQNDTKVLRSKSLLNEIESIYDERQEQATEENAGVPVGPHLSLAYEDKQILEDAAALIIHHVKRQTGIQKEDKYKIKQIMHHFIPDLLFAQRGDLSDVEEEEEEEMDVDEATGAVKKHNGVGGSPPKSKLLFSNTAAQKLRGMDEVYNLFYVNNNWYIFMRLHQILCLRLLRICSQAERQIEEENREREWEREVLGIKRDKSDSPAIQLRLKEPMDVDVEDYYPAFLDMVRSLLDGNIDSSQYEDSLREMFTIHAYIAFTMDKLIQSIVRQLQHIVSDEICVQVTDLYLAENNNGATGGQLNTQNSRSLLESTYQRKAEQLMSDENCFKLMFIQSQGQVQLTIELLDTEEENSDDPVEAERWSDYVERYMNSDTTSPELREHLAQKPVFLPRNLRRIRKCQRGREQQEKEGKEGNSKKTMENVDSLDKLECRFKLNSYKMVYVIKSEDYMYRRTALLRAHQSHERVSKRLHQRFQAWVDKWTKEHVPREMAAETSKWLMGEGLEGLVPCTTTCDTETLHFVSINKYRVKYGTVFKAP
# B4: SAFB1_HUMAN (protein, UniProt Q15424 2-915, looked up)
# Scaffold attachment factor B1: AETLSGLGDSGAAGAAALSSASSETGTRRLSDLRVIDLRAELRKRNVDSSGNKSVLMERLKKAIEDEGGNPDEIEITSEGNKKTSKRSSKGRKPEEEGVEDNGLEENSGDGQEDVETSLENLQDIDIMDISVLDEAEIDNGSVADCVEDDDADNLQESLSDSRELVEGEMKELPEQLQEHAIEDKETINNLDTSSSDFTILQEIEEPSLEPENEKILDILGETCKSEPVKEESSELEQPFAQDTSSVGPDRKLAEEEDLFDSAHPEEGDLDLASESTAHAQSSKADSLLAVVKREPAEQPGDGERTDCEPVGLEPAVEQSSAASELAEASSEELAEAPTEAPSPEARDSKEDGRKFDFDACNEVPPAPKESSTSEGADQKMSSPEDDSDTKRLSKEEKGRSSCGRNFWVSGLSSTTRATDLKNLFSKYGKVVGAKVVTNARSPGARCYGFVTMSTAEEATKCINHLHKTELHGKMISVEKAKNEPVGKKTSDKRDSDGKKEKSSNSDRSTNLKRDDKCDRKDDAKKGDDGSGEKSKDQDDQKPGPSERSRATKSGSRGTERTVVMDKSKGVPVISVKTSGSKERASKSQDRKSASREKRSVVSFDKVKEPRKSRDSESHSRVRERSEREQRMQAQWEREERERLEIARERLAFQRQRLERERMERERLERERMHVEHERRREQERIHREREELRRQQELRYEQERRPAVRRPYDLDRRDDAYWPEAKRAALDERYHSDFNRQDRFHDFDHRDRGRYPDHSVDRREGSRSMMGEREGQHYPERHGGPERHGRDSRDGWGGYGSDKRMSEGRGLPPPPRRDWGDHGRREDDRSWQGTADGGMMDRDHKRWQGGERSMSGHSGPGHMMNRGGMSGRGSFAPGGASRGHPIPHGGMQGGFGGQSRGSRPSDARFTRRY
# B5: PREP_HUMAN (protein, UniProt Q5JRX3 29-1037, looked up)
# Presequence protease, …: NSNRACERALQYKLGDKIHGFTVNQVTSVPELFLTAVKLTHDDTGARYLHLAREDTNNLFSVQFRTTPMDSTGVPHILEHTVLCGSQKYPCRDPFFKMLNRSLSTFMNAFTASDYTLYPFSTQNPKDFQNLLSVYLDATFFPCLRELDFWQEGWRLEHENPSDPQTPLVFKGVVFNEMKGAFTDNERIFSQHLQNRLLPDHTYSVVSGGDPLCIPELTWEQLKQFHATHYHPSNARFFTYGNFPLEQHLKQIHEEALSKFQKIEPSTVVPAQTPWDKPREFQITCGPDSFATDPSKQTTISVSFLLPDITDTFEAFTLSLLSSLLTSGPNSPFYKALIESGLGTDFSPDVGYNGYTREAYFSVGLQGIAEKDIETVRSLIDRTIDEVVEKGFEDDRIEALLHKIEIQMKHQSTSFGLMLTSYIASCWNHDGDPVELLKLGNQLAKFRQCLQENPKFLQEKVKQYFKNNQHKLTLSMRPDDKYHEKQAQVEATKLKQKVEALSPGDRQQIYEKGLELRSQQSKPQDASCLPALKVSDIEPTIPVTELDVVLTAGDIPVQYCAQPTNGMVYFRAFSSLNTLPEELRPYVPLFCSVLTKLGCGLLDYREQAQQIELKTGGMSASPHVLPDDSHMDTYEQGVLFSSLCLDRNLPDMMQLWSEIFNNPCFEEEEHFKVLVKMTAQELANGIPDSGHLYASIRAGRTLTPAGDLQETFSGMDQVRLMKRIAEMTDIKPILRKLPRIKKHLLNGDNMRCSVNATPQQMPQTEKAVEDFLRSIGRSKKERRPVRPHTVEKPVPSSSGGDAHVPHGSQVIRKLVMEPTFKPWQMKTHFLMPFPVNYVGECIRTVPYTDPDHASLKILARLMTAKFLHTEIREKGGAYGGGAKLSHNGIFTLYSYRDPNTIETLQSFGKAVDWAKSGKFTQQDIDEAKLSVFSTVDAPVAPSDKGMDHFLYGLSDEMKQAHREQLFAVSHDKLLAVSDRYLGTGKSTHGLAILGPENPKIAKDPSWIIQ
# Test system: KDM4A-I71AzF
# Test: CASI: photo-crosslinking with HEK293T cell extracts, StrepTactin enrichment and LC-MS/MS proteomics;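 further: lysates from HEK293T cells pretreated with a KDM4 inhibitor to raise proteome methylation, affinity-purified after ±UV, gel-resolved, trypsin-digested, with exclusive unique peptides per protein averaged per condition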
# Assay type: binding, human
# Settings: sheet "Final results but with 0.01"
row,Molecule,Fold change (+UV/-UV)
1,B1,0.6
2,B2,0.3333
3,B3,1.333
4,B4,0.5
5,B5,0.2
